Measurements as given in the DeepSol protein solubility set.

assay: soluble on expression in E. coli; label from the status in PepcDB or PDB records

Row | Sequence | soluble on expression in E. coli
1 | MQELKVPSVGESIVEVEIGAWLKGEGESFAQDEPLVELITDKATLELPAPFAGTLKQILKRTGETARVGEAIALLEEGRAEAAPKAQAPAEAPKEPSPEPLAMPAAERLMQEKGVSPAEVQGTGLGGRILKEDVMRHLEERAPAKPQEAPPPPPPSRPAPPPSTPPQPPADKPWRVSEAVPMTPLRRRIAERLLMVRQTTAMLTTFNEADMSAVIALRKEFGEAFQKKYGVKLGFMSFFVKAVVQALKEIPELNAEIRDNHIVYHRYYDIGIAVGGGEGLVVPVIRDADRLSFAEIEQKIADFAERARTKKLKPEELMGGTFTITNGGIYGSLNSTPLLNPPQVGILGMHAIQERPVVRDGQVVIRPMMYLALSYDHRIVDGREAVTFLRRVKELIENPARLLLEV | soluble
2 | MSVVEEATDDALYPIAVLIDELRNEDVTLRLNSIRKLSTIALALGVERTRNELIQFLTDTIYDEDEVLLVLAEQLGNFTPLVGGPDHVHCLLLPLENLATVEETVVRDKAVESLRKIADKHSSASLEEHFVPMLRRLATGDWFTSRTSACGLFSVVYPRVSPAIKSELKSMFRTLCRDDTPMVRRAAAAKLGEFAKVFEKTAVIEGLHSSLTDLHVDEQDSVRLLTVESAIAFGTLLDKANKKKLIEPILIELFDDKSWRVRYMVAEKLIEIQNVLGEDMDTTHLVNMYTNLLKDPEGEVRCAATQRLQEFALNLPEDKRQNIICNSLLNVAKELVTDGNQLVKSELAGVIMGLAPLIGKEQTVSELLPIYMQLLNDQTPEVRLNIISSLDKVNEVIGAAQLSTSLLPAIVGLAEDGKWRVRLAIVQFMPLLASQLGQEFFDEKLLPLCLNWLTDHVFSIREASTLIMKELTQKFGGQWASTNIVPKMQKLQKDTNYLQRMTCLFCLNTLSEAMTQEQILKEIMPIVKDLVEDDVPNVRFNAAKSLKRIGKNLTPSTLTSEVKPLLEKLGKDSDFDVRYFSEEAKNSLGL | not soluble
3 | MLLTPAKTTRTEDSANSTDDSSKSSNSFMRAIVSSLMVKPITSLTNTVTCRQSSHHNSSPSKITRYDLIKAAAENDLKRSKSQGREKSRRNSNRRNNEEIFVANTASEIQRTKSSI | soluble
4 | MMYQVKGYFSSLKGSYYEIGKQQGEFVKQNPYLIPQFIHEENVISNNHWTESRNILNKHCPGINEEIEGFCEVLKIPSKNMMYYYQTLLKAGCSHCAVLPKKTDLEHTYVLRNYDLSPVIDDMRFCSTHVEGAYAHSGFSTQYFGRTEGINEHGLAVTFSACGQPVGNIAGLRKPMVSGLQCFAVIRLLLEKCKNVQEAKLLIEEIPIASNINLIIADPLNAAYIEIFDGHKSTITIDGEKQAFIVSTNHAVSSSIQKLNNRKLEQSTKRYHLLHEHLNRCEQVSIESLKKLVEEEYPAGLTVHNYEEWFGTLHSVLFDLHDRTMKICFGSPLLNDWYSLKVGGSMPFSEVNVNFKNKTYTDFWKEDKNELIPKRLEHHHHHH | soluble
5 | MNTSSSADPKPDASLSSSNSKIKKEEDLEAMKEAIAQLLQGVEELTQDKLNDAKSRKKLEESMEELKSQNLDLKAQLDFQMAHFQSLFEAHEKEIADLKARQYQNNSIAAQTPPPDVRQELRSFPMVKHSRENPELRNVPVLIFSRCMLCETDEHTIHSCPIYNTNSKRYEGFKDKGLCRSCALPANSDGSATCGRNCMFSRRRCTNCWDKGGDKSYVYHLEFTCRWDERRSQRTSPFSTDHSDRSSKHPRISFDECENHHY | not soluble
6 | MFLLKQIGVIRSPFKSPSECPFQGRFSQERFTIELFPEYEEGLKDIETCTHLIVLYWLDRANRDRLIAIPPFDKREHGVFATRSPHRPNPIGFSVVKLLEVRGRELVVEGLDAVDGTPVVDIKPYSSKIDCVENARIGWFEEV | soluble
7 | MKAPELQIQQWFNSATDLTLADLRGKVIVIEAFQMLCPGCVMHGIPLAQKVRAAFPEDKVAVLGLHTVFEHHEAMTPISLKAFLHEYRIKFPVGVDQPGDGAMPRTMAAYQMRGTPSLLLIDKAGDLRAHHFGDVSELLLGAEIATLLGEAAPSVQKQAGTPQGDANCDNDGCTV | not soluble
8 | MSLSQASTVCALNDHLPNTVLRLPLKYPSTNKELKSHEYFESQIAYTGCLIATTTHMVDHISWRLNNDLKTITLTPICISNPFQLECRTISLLLPSQVYPHCIDAVYHGEEGGYLVVDVIDENYLWITLRIEMNDFLHNTKNFRPLTLDQFESWGHISVPYSFELRSNPYCLRVLDERNVVVSLKDGGLLHFQRSSVLADFNVFNCEESAHFHLGGILDGIFKSGRADLTVDGVSSNAAIDATIVPDPSKSLIATLTVSKTIKFWDLKEHSLLRERTIHPQDTNTWLSFGPARYLQCYGNVLGVHSLLQTKHSTSIDFWDVSPLKEDQKSYKILHTVELLSPTINGAPSDSPFSNDIWFIQDFTLKFEKGNFTVLWKSNNSSILTIYDLKNLAENDKPPKLSQWTLSGSEGHHHHHH | soluble
9 | MINKLKENIGSVFVGKENVIDLLLVSLLADGHVLLENVPGTGKTLLAKTISKSIGGSFSRVQFTPDVLPSDVTGIEYFNPKTSEFELRIGPVMTNILLADEINRAMPRTQSSLLEAMEERQVTLEKQSTPLPKPFFVIATQNPIESQGTFPLPDAQLDRFLMTISIGHPTPKDELQMMRRFRNDLPLESVTSVISLEDILEAQKRVKEIFVSEPLEHYIIKLAHATRNHDYIANGVSPRATLALVRAVQALAFLRGREYCTPEDIQLLVPSVWNHRIVLSMEGALRTTKNDIMQSILKEVDVPVEIEQA | not soluble
10 | MSRNDLFKQPLDTINVGIDFIHEDMKKQGIPSHQVNWAPPANGDPELLKLLDQLKNPTLYEKIQQANEEAVTRIIQSKPILVGFDKAINVMPDMTETTILHAGPPITYENMCGPMKGAVQGALVFEGLAKDLADADRVARSGAITFSPCHEHDAVGSMAGVTSPNMYVHIIKNETYGNTAFTNLSEQLAKVLRFGANDQSVVDRLIWMRDVLGPLLHDAMTFCPEGIDLRLMLSQALHMGDECHNRNVAGSTLLVQALTPYMVQTDFSREQLKEVFEFLGSSDYFSGPTWMGAAKCALDAGHNVENSTIVTTMCRNGVEFGIRVSGIGGNHWFTGPAQRVIGPMFAGYTQEDAGLDMGDSAITETYGVGGFAMAAAPAIVPLVGGTVAEALNYSKEMLEITTKENPNVTIPVLDFMGIPTGIDVLKVLETGMLPVINTAIAHKEPGIGMIGAGLTNPPANVFNEALKALVATIN | soluble
11 | MSLTFDFFEGPAGSGKTFSMVAHARQLIESDALGEGQRMLALTFMNGARRRLTSNLNAEASFRRKFDCLTFDSFAQSLAKRRSAKLTDEMRQQAEELGQFHGPCFLACELLNDVEVRRWVARTYPLVLVDEAQDLDVHRQGIVLGLKECCTTVVAADSFQCLSDGQETADFIDRLLRAGTTHTLTQSHRTNKAGLLAAALAVRNGEDIRAVLNEEAIGKTNRVHWIGEGIELVEVPATARNSGLLAWNLAFQLRLGSDDVALLTPDSANTIIRNAIGTVASKQRPWPHNAFSVSWEGGDSSVADELAEAIGFPDTAPYDEVCALLEEHSAQPMVKTVIRRIRRLQRVTGQSEFEKAQLVSFISDAVRTNTRLGFKKSAKIKAMSIHGAKNREFDRVIVLWPQSATGSDEHKRRLLYNAMTRTKNHCTVIVLGTGRLNSAPFAEGHHHHHH | soluble
12 | MSLAEYVYTMSRVSKIVPPKRQILKDISLSFFPGAKIGVLGLNGAGKSTLLRIMAGIDKDIDGEARPQPGLKVGYLPQEPKLDESKTVREVVEEAVADVAYALKRLDEVYAAYAEPDADFDALAKEQGELEALIQAKNGHNLDNALERAADALRLPEWDAQVKYLSGGERRRVAICRLLLENPDMLLLDEPTNHLDAESVAWLERFLVDYAGTVVAITHDRYFLDNAAGWILELDRGEGIPWQGNYTSWLEQKDARLKQEASEGHHHHHH | not soluble
